Experimental data published in US20070178531A1 (BIOCHECK, published 2007).
Changes are numbered by the printed parent chain.

T1: Mouse Id2: Histidine (mouse, UniProt P41136 1-134, limits assumed)
T1 construct: Fusion protein made in E. coli from vector pGW07; also called m-Id2: His; not shown: His tag
T1 sequence (looked up): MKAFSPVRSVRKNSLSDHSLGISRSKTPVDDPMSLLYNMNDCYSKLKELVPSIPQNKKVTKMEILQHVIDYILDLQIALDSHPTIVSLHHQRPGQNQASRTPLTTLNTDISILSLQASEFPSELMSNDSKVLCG

T2: Human Id2: Histidine (human, UniProt Q02363 1-134, limits assumed)
T2 construct: Fusion protein made in E. coli from vector pGW07; also called h-Id2: His; not shown: His tag
T2 sequence (looked up): T1 sequence (looked up) with T60S, V131A

T3: Mouse Id1: Histidine (mouse, UniProt P20067-2 1-148, limits assumed)
T3 construct: Fusion protein made in E. coli from vector pGW07; also called m-Id1-His; not shown: His tag
T3 sequence (looked up): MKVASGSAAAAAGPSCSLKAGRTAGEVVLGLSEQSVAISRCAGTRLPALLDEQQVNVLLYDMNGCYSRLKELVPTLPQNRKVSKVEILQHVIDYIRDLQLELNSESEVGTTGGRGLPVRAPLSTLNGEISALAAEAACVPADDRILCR

T4: Human Id1: Histidine (human, UniProt P41134 1-155, limits assumed)
T4 construct: Fusion protein made in E. coli from vector pGW07; also called h-Id1: his; not shown: His tag
T4 sequence (looked up): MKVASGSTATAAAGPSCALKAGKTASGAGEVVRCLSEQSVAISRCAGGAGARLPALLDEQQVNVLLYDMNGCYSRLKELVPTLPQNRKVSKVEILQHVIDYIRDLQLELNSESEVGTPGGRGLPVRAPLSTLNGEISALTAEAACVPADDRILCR

T5: Mouse Id3: Histidine (mouse, UniProt P41133 1-119)
T5 construct: Fusion protein made in E. coli from vector pGW07; also called m-Id3: His; Mouse Id3 (coated wells); not shown: His tag
T5 sequence: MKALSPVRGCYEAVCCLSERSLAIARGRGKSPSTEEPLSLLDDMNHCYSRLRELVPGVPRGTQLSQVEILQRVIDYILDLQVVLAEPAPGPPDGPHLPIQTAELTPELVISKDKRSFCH

T6: Human Id3: Histidine (human, UniProt Q02535 1-119 at identity 1.00))
T6 construct: Fusion protein made in E. coli from vector pGW07; also called h-Id3: His; Human Id3 (coated wells); not shown: His tag
T6 chain: T5 sequence with S31G, S33A, T34A, T105A, K112N

B1: rabbit monoclonal anti-mouse/human Id3, clone #BCH-4/#16-1 (antibody, V domains shown)
VH: QSVEESGGRLVTPGTPLTLTCTASGFSLSSYYIHWVRQAPGKALEWIGYISDGGTTYYASWAKGRFTISKTSSTTVDLKMTSLTTEDTATYFCARQGFNIWGPGTLVTVSL
VL: AVLTQTPSPVSAAVGGTVTISCQSSQSVYNNNWLSWFQQKSGQPPKLLIYETSKLESGVPSRFKGSGSGTQFTLTIIDVQCDDAATYYCLGGYWTTSDNNIFGGGTEVVVK
notes: Rabbit IgG from a rabbit hybridoma; also called m/h Id3 MoAb 16-1
B2: rabbit monoclonal anti-mouse/human Id3, clone #BCH-4/#17-3 (antibody, V domains shown)
VH: B1 VH with S30N, Y31V, A43G, G54D, T56A, Y57R, S60T, D77N
VL: B1 VL with T19S, Y29W, S41P, I77S, I101V
notes: Rabbit IgG from a rabbit hybridoma; also called m/h Id3 MoAb 17-3; BCH-3/#17-3
B3: rabbit monoclonal anti-mouse/human Id3, clone #BCH-4/#6-1 (antibody, V domains shown)
VH: B1 VH with S30N, Y31V, A43G, G54D, T56A, Y57R, S60T, D77N
VL: B1 VL with T19S, Y29W, S41P, I77S, I101V
notes: Rabbit IgG from a rabbit hybridoma; also called m/h Id3 MoAb 6-1
B4: rabbit monoclonal anti-mouse/human Id3, clone #BCH-4/#42-1 (antibody, V domains shown)
VH: B1 VH
VL: B1 VL with T95S
notes: Rabbit IgG from a rabbit hybridoma; also called m/h Id3 MoAb 42-1
B5: rabbit monoclonal anti-human Id3, clone #BCH-4/#3-3 (antibody, V domains shown)
VH: QSVEESGGRLVTPGTPLTLTCTVSGIDLSSYAMSWVRQAPGKGLEWIGVIFPSNNVYYASWAKGRFTISKTSTTVDLKITSPTTEDTATYFCASMGAFDSWGPGTLVTVSS
VL: QVLTQTPSPVSAAVGGTVTINCQASQSIYNDNDLAWFQQKPGQPPKLLIYDASTLTSGVPSRFKGSGSGTQFTLTISDLDCDDAATYYCAARYSGNIYGFGGGTEVVVK
notes: Rabbit IgG from a rabbit hybridoma; also called h Id3 MoAb 3-3

Each binder was assayed against T1, Mouse Id2: Histidine (assay: ELISA, Ab 0.005 µg/ml).
Description: (§1) The rabbit monoclonal anti-human Id3 (clone #3-3) and the rabbit monoclonal anti-mouse/human Id3 (clones #6-1, 16-1, 17-3, and 42-1) produced in Example 6 were tested reactivity against the following antigens: mouse Id1:His, human Id1:His, mouse Id2:His, human Id2:His, mouse Id3:His, human Id3:His, mouse Id4:His, human Id4:His and GST.
(§2) 1. Microtiter wells (prepared in accordance with Example 6) were coated (0.1 μg/well) with mouse Id1:His, human Id1:His, human Id2:His, human Id3:His, and 1.0 μg/well with GST. [0155] 2. Antibody Diluent: 0.25% (w/v) BSA in 0.015M KPO₄ Buffer, 0.85% (w/v) NaCl, 0.1% (w/v) NaN₃, pH=7.40 [0156] 3. Rabbit monoclonal anti-human Id3 (clone #3-3) prepared in Example 7 was diluted to […] with the antibody diluent. […] 4. Rabbit monoclonal anti-mouse/human Id3 (clones #6-1, 16-1, 17-3, 42-1) prepared in Example 7 was diluted to 0.005, 0.010, 0.025, 0.05, 0.10, 0.25, and 0.50 μg/ml with the antibody diluent. […] 5. Conjugate Diluent: 50% (v/v) which consists of an aqueous solution containing Fetal Bovine Serum in 0.05 M Tris, 1% (v/v) Proclin-300, pH 7.6. [0159] 6. Conjugate: Goat anti-rabbit IgG (H+L)-HRP conjugate. [0160] 7. TMB reagent. […] 8. Stop solution (1 N HCI). Method
(§3) 1. Dispense 100 μL of antibody diluent, diluted rabbit monoclonal human Id3, and mouse/human Id3 hybridoma supernatants into appropriate wells. […] 2. Incubate at room temperature with mechanical shaking at 750 rpm for 90 minutes. [0165] 3. Remove the incubation mixture by flicking plate content into an appropriate waste container followed by rinsing the wells 5 times with distilled water. [0166] 4. Strike the wells sharply onto absorbent paper or paper towels to remove all residual water droplets. [0167] 5. Dispense 100 μL of 1:50,000 Goat Anti-Rabbit IgG-HRP Conjugate Reagent into each well. Gently mix for 5 seconds. [0168] 6. Incubate at room temperature with mechanical shaking at 750 rpm for 90 minutes. [0169] 7. Repeat procedures 3 and 4. [0170] 8. Dispense 100 μL of TMB Reagent into each well. Gently mix for 5 seconds. [0171] 9. Incubate at room temperature with mechanical shaking at 750 rpm for 20 minutes. […] 10.

First: B1
Second: B2
The A450 of the first is lower: 0.045 A450 for the first, 0.052 A450 for the second.

Compared with B3, B4 is higher in A450: 0.046 A450 for the first, 0.05 A450 for the second.

With B5 the A450 was 0.048 A450.

Each binder was assayed against T2, Human Id2: Histidine (assay: ELISA, Ab 0.005 µg/ml).
Description: as §1, §2, §3

Going from B1 to B2, the A450 falls from 0.046 A450 to 0.045 A450.

First: B3
Second: B4
The A450 of the first is higher: 0.045 A450 for the first, 0.043 A450 for the second.

In the case of B5, the A450 is reported as 0.044 A450.

These binders were tested against T3, Mouse Id1: Histidine (assay: ELISA, Ab 0.005 µg/ml).
Description: as §1, §2, §3

Compared with B1, B2 is higher in A450: 0.046 A450 for the first, 0.048 A450 for the second.

First: B3
Second: B4
The A450 of the first is higher: 0.047 A450 for the first, 0.045 A450 for the second.

With B5 the A450 was 0.044 A450.

Each binder was assayed against T4, Human Id1: Histidine (assay: ELISA, Ab 0.010 µg/ml).
Description: as §1, §2, §3

Compared with B1, B2 is higher in A450: 0.042 A450 for the first, 0.046 A450 for the second.

First: B3
Second: B4
The A450 of the first is higher: 0.049 A450 for the first, 0.045 A450 for the second.

With B5 the A450 was 0.046 A450.

The binders below were run against T1, Mouse Id2: Histidine (assay: ELISA, Ab 0.010 µg/ml).
Description: as §1, §2, §3

Going from B1 to B2, the A450 falls from 0.049 A450 to 0.048 A450.

Compared with B3, B4 is higher in A450: 0.048 A450 for the first, 0.05 A450 for the second.

With B5 the A450 was 0.045 A450.

The binders below were run against T2, Human Id2: Histidine (assay: ELISA, Ab 0.010 µg/ml).
Description: as §1, §2, §3

First: B1
Second: B2
The A450 of the first is higher: 0.044 A450 for the first, 0.043 A450 for the second.

Going from B3 to B4, the A450 rises from 0.044 A450 to 0.046 A450.

B5 gave an A450 of 0.043 A450.

The binders below were run against T5, Mouse Id3: Histidine (assay: ELISA, Ab 0.010 µg/ml).
Description: as §1, §2, §3

First: B1
Second: B2
The A450 of the first is lower: 0.432 A450 for the first, 0.69 A450 for the second.

First: B3
Second: B4
The A450 of the first is lower: 0.539 A450 for the first, 0.756 A450 for the second.

Target: T6, Human Id3: Histidine
Experiment: ELISA, Ab 0.010 µg/ml
Description: as §1, §2, §3

Going from B1 to B2, the A450 rises from 0.391 A450 to 0.581 A450.

Going from B3 to B4, the A450 rises from 0.491 A450 to 0.713 A450.

Each binder was assayed against T3, Mouse Id1: Histidine (assay: ELISA, Ab 0.010 µg/ml).
Description: as §1, §2, §3

First: B1
Second: B2
The A450 of the first is higher: 0.05 A450 for the first, 0.047 A450 for the second.

Going from B3 to B4, the A450 falls from 0.044 A450 to 0.043 A450.

With B5 the A450 was 0.047 A450.

Each binder was assayed against T7, glutathione S-transferase (GST) (UniProt P08515 1-218 = GST) (assay: ELISA, Ab 0.050 µg/ml).
T7 construct: also called carrier protein GST
T7 sequence (P08515 whole entry): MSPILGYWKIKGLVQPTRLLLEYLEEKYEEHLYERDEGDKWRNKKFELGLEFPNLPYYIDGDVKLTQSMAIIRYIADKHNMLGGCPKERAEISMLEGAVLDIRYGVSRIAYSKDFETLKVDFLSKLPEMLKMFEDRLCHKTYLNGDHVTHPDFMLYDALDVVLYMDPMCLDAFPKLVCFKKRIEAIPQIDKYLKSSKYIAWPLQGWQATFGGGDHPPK

B1 and B2 are the same in A450: 0.046 A450 for the first, 0.046 A450 for the second.

Compared with B3, B4 is higher in A450: 0.047 A450 for the first, 0.049 A450 for the second.

In the case of B5, the A450 is reported as 0.048 A450.

The binders below were run against T3, Mouse Id1: Histidine (assay: ELISA, Ab 0.000 µg/ml (blank)).
Description: as §1, §2, §3

Going from B1 to B2, the A450 rises from 0.044 A450 to 0.045 A450.

Compared with B3, B4 is higher in A450: 0.045 A450 for the first, 0.052 A450 for the second.

Work on B5 yielded an A450 of 0.047 A450.
